Experimental data: the supplement of paper PMC10567573

B1: ZNF263 (parent)
chain: KPYKCTLCGENFSHRSNLIRHQRI

Variants of: B1
Test: protein stability index of a GFP-peptide fusion (GPS, HEK-293T) (PSI 1-6); higher = more stable
Conditions: c terminus: a fixed tail appended
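Further: lentivirally expressed fusions sorted by FACS into six bins by GFP to DsRed ratio, PSI derived from sequencing read proportions per bin multiplied by bin number.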

Protein stability index: each site, then its substitutions
G9: F 2.43 | Q 2.79 | E 2.29 | N 2.36 | I 4 | C 2.16 | S 2.38 | K 2.05 | A 2.19 | P 1.67 | D 2.01 | R 2.5 | L 1.16 | M 2.38 | H 1.81
L7: R 2.28 | G 2.18 | E 3.63 | S 2.68 | C 3.9 | W 2.69 | Q 3.02 | A 3.07 | H 3.88 | I 3.06 | V 3.37 | D 3.02 | K 3.22 | F 2.51 | N 2.78 | T 2.51 | M 3.12 | Y 3.25 | P 1.69
T6: Q 2.21 | H 3.1 | M 2.08 | K 2.69 | P 2.42 | S 3.17 | F 2.61 | G 2.67 | I 2.38 | L 2.21 | A 2.43 | R 2.96 | C 2.1 | W 2.53 | D 2.7 | Y 1.98 | N 2.6 | E 2.9 | V 2.07
C5: R 1.86 | G 2.22 | S 2.43 | M 1.67 | V 2.06 | N 2.41 | E 2.19 | H 2.34 | Q 3.12 | W 1.61 | D 2.69 | F 1.45 | K 2.44 | Y 1.96 | L 2.47 | A 2.52 | T 2.09 | I 1.75 | P 2.44
P2: V 2.98 | W 2.05 | S 2.59 | E 2.67 | N 2.49 | T 2.53 | K 2.92 | Y 2.14 | C 2.02 | G 2.77 | I 2.33 | M 2.05 | F 2.12 | D 2.3 | R 3.12 | L 2.53 | Q 2.09 | H 2.49 | A 2.7
Y3: P 1.85 | K 3.17 | T 2.4 | F 2.23 | E 1.78 | V 2.28 | Q 2.14 | I 1.55 | N 2.47 | W 2.42 | C 2.47 | R 3.54 | M 1.73 | S 2.11 | D 1.84 | G 1.84 | L 2.64 | H 1.34 | A 1.9
K1: G 2.27 | L 2.25 | S 2.81 | P 3.08 | N 2.12 | A 2.19 | Y 2.69 | T 2.08 | C 2.67 | E 3.25 | F 2.56 | Q 2.38 | H 2.47 | W 1.92 | I 2.16 | R 2.66 | V 1.56 | D 3.07 | M 2.65
C8: H 2.1 | Y 2.41 | S 4.1 | T 2.69 | M 1.83 | R 1.73 | D 2.62 | W 1.88 | L 2.44 | I 2.58 | E 2.48 | F 2.11 | V 2.47 | K 3.61 | A 2.34 | Q 2.74 | N 2.89 | G 2.45 | P 2.45
K4: S 1.9 | F 2.01 | I 2.87 | H 2.95 | P 1.96 | Y 2.16 | V 2.87 | E 2.35 | G 2.35 | A 2.32 | L 1.84 | T 2.52 | N 1.94 | C 1.7 | M 2.23 | R 2.54 | D 1.75 | W 2.35 | Q 2.48
